According to patent US8932558B2, “Multi-subunit biological complexes for treatment of plaque-associated diseases” (Plaxgen Inc, priority 2007, dated 2015):

B1: chicken ovalbumin: chicken ovalbumin (protein, UniProt P01012 2-386, looked up)
Ovalbumin: GSIGAASMEFCFDVFKELKVHHANENIFYCPIAIMSALAMVYLGAKDSTRTQINKVVRFDKLPGFGDSIEAQCGTSVNVHSSLRDILNQITKPNDVYSFSLASRLYAEERYPILPEYLQCVKELYRGGLEPINFQTAADQARELINSWVESQTNGIIRNVLQPSSVDSQTAMVLVNAIVFKGLWEKAFKDEDTQAMPFRVTEQESKPVQMMYQIGLFRVASMASEKMKILELPFASGTMSMLVLLPDEVSGLEQLESIINFEKLTEWTSSNVMEERKIKVYLPRMKMEEKYNLTSVLMAMGITDVFSSSANLSGISSAESLKISQAVHAAHAEINEAGREVVGSAEAGVDAASVSEEFRADHPFLFCIKHIATNAVLFFGRCVSP
B2: STI: soybean trypsin inhibitor (protein, UniProt P01070 25-205, looked up)
Trypsin inhibitor A: DFVLDNEGNPLENGGTYYILSDITAFGGIRAAPTGNERCPLTVVQSRNELDKGIGTIISSPYRIRFIAEGHPLSLKFDSFAVIMLCVGIPTEWSVVEDLPEGPAVKIGENKDAMDGWFRLERVSDDEFNNYKLVFCPQQAEDDKCGDIGISIDHDDGTRRLVVSKNKPLVVQFQKLDKESL
B3: proteinase K: serine protease (protein, UniProt P06873 106-384, looked up)
Proteinase K: AAQTNAPWGLARISSTSPGTSTYYYDESAGQGSCVYVIDTGIEASHPEFEGRAQMVKTYYYSSRDGNGHGTHCAGTVGSRTYGVAKKTQLFGVKVLDDNGSGQYSTIIAGMDFVASDKNNRNCPKGVVASLSLGGGYSSSVNSAAARLQSSGVMVAVAAGNNNADARNYSPASEPSVCTVGASDRYDRRSSFSNYGSVLDIFGPGTSILSTWIGGSTRSISGTSMATPHVAGLAAYLMTLGKTTAASACRYIADTANKGDLSNIPFGTVNLLAYNNYQA
B4: plasmin: serine protease (protein, UniProt P00747 20-580; P00747 581-810, looked up)
Plasmin heavy chain A: EPLDDYVNTQGASLFSVTKKQLGAGSIEECAAKCEEDEEFTCRAFQYHSKEQQCVIMAENRKSSIIIRMRDVVLFEKKVYLSECKTGNGKNYRGTMSKTKNGITCQKWSSTSPHRPRFSPATHPSEGLEENYCRNPDNDPQGPWCYTTDPEKRYDYCDILECEEECMHCSGENYDGKISKTMSGLECQAWDSQSPHAHGYIPSKFPNKNLKKNYCRNPDRELRPWCFTTDPNKRWELCDIPRCTTPPPSSGPTYQCLKGTGENYRGNVAVTVSGHTCQHWSAQTPHTHNRTPENFPCKNLDENYCRNPDGKRAPWCHTTNSQVRWEYCKIPSCDSSPVSTEQLAPTAPPELTPVVQDCYHGDGQSYRGTSSTTTTGKKCQSWSSMTPHRHQKTPENYPNAGLTMNYCRNPDADKGPWCFTTDPSVRWEYCNLKKCSGTEASVVAPPPVVLLPDVETPSEEDCMFGNGKGYRGKRATTVTGTPCQDWAAQEPHRHSIFTPETNPRAGLEKNYCRNPDGDVGGPWCYTTNPRKLYDYCDVPQCAAPSFDCGKPQVEPKKCPGR
Plasmin light chain B: VVGGCVAHPHSWPWQVSLRTRFGMHFCGGTLISPEWVLTAAHCLEKSPRPSSYKVILGAHQEVNLEPHVQEIEVSRLFLEPTRKDIALLKLSSPAVITDKVIPACLPSPNYVVADRTECFITGWGETQGTFGAGLLKEAQLPVIENKVCNRYEFLNGRVQSTELCAGHLAGGTDSCQGDSGGPLVCFEKDKYILQGVTSWGLGCARPNKPGVYVRVSRFVTWIEGVMRNN
modifications: Plasmin
notes: serine protease

Key:
[1] = target: iron-loaded abeta42 templates (Homo sapiens, UniProt P05067); assay: Binding of proteins to iron-loaded abeta42 templates; conditions: SDS-PAGE
Source text: FIG. 46 illustrates an example involving the identification of proteins that bind to iron-loaded abeta42 templates. The iron-loaded abeta42 templates are combined with known and unknown cell extracts (CE) and subjected to CPA, as described herein. To determine which proteins successfully bind the templates, the final template complexes are suspended in denaturing sample buffer, boiled, and loaded into SDS-PAGE gel. The gels are then stained with coomassie blue or silver stain in order to visualize the binding proteins. […] In the negative control, no significant binding is observed when the proteins are incubated in the absence of the templates.
In experiments such as these, known and unknown cell extract proteins that are used for the complex formation with the aggregates are diluted in PBS to a 1 mg/ml concentration and stored at −70° C. as 50 μl aliquots. These samples are thawed on ice and centrifuged (13000 rpm, 15 min, 4° C.) to remove any precipitation. The supernatant containing soluble proteins is used to form complexes with the aggregates. Various proteins are screened against the iron loaded abeta42 aggregates for examining their binding. […] The proteins in the gels are detected using coomassie blue or silver stain (Owl silver stain, Pierce, Ill., USA). […]

[2] = tested on: iron loaded prion or abeta40 templates; type: binding
[3] = tested on: iron loaded abeta42 aggregates mixed with CE proteins; assay: Proteolysis of amyloid plaque complexes assembled on iron loaded abeta42 aggregates; type: biochemical; conditions: 20 ng protease, 37° C., 1 hr
Protocol: This example illustrates the use of the invention to evaluate the proteolytic degradation of the amyloid complexes. For example, iron loaded abeta42 aggregates are mixed with CE proteins, and the resulting template complexes are treated with five different serine proteases. More specifically, nine independent reactions are carried out with each containing 5.0 μg of the iron-loaded aggregates of abeta42 and 6.0 μg of the CE proteins. After incubation and washing, the complexes are suspended in 50 μl of PBS. The nine complexes are sub-divided into two groups, with six individual complexes comprising Group I and three complexes comprising Group II. In order to interrogate the role of the plasminogen (PLG) activation system, which is implicated in the catabolism of amyloid peptides as well as the pathobiology of amyloid diseases (Melchor J P et al, 2003; Van Nostrand W E et al, 1999; Kranenburg O, 2005), the Group II complexes are subjected to another cycle of binding with both PLG (0.5 μg) and BSA (0.5 μg) proteins. After binding and washing, the PLG and BSA bound plaques complexes are suspended in 50 μl of PBS.
For proteolysis analysis, five of the six Group I template complexes are incubated with 20 ng of each protease (plasnin, chymotrypsin, trypsin, proteinase K and urokinase). The remaining complex is used as a control without protease treatment. […]

Sequence of iron-loaded abeta42 templates (P05067 672-713 limits assumed): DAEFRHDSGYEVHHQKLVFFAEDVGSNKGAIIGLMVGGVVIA

Molecule | Degradation of proteins bound to the aggregates [3] | also measured
B1 |  | Binding with iron-loaded abeta42 templates [1]: no detectable binding
B2 |  | Binding with iron loaded prion or abeta40 templates [2]: no detectable binding
B3 | degraded | 
B4 | degraded | 
